Here are results for 11 molecules from publication PMC10397247.

Assay [1] has as its target T1, P2p.
T1 chain: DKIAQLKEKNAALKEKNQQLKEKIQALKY
Nature of the assay: two-hybrid library CCmax.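 Note: natural log of median RNA to DNA barcode read ratio; higher means stronger binding.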 Conditions: mean of both orientations.

Assay [2] addresses T2, 4H1046-bH.
T2 chain: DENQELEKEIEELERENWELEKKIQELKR
Nature of the assay: two-hybrid library CCNG1.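 Note: natural log of median RNA to DNA barcode read ratio; higher means stronger binding.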 Conditions: mean of both orientations.

For assay [3], the target named is T3, 4H1072-bH.
T3 chain: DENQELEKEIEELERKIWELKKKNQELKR
Nature of the assay: two-hybrid library CCNG1.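 Note: natural log of median RNA to DNA barcode read ratio; higher means stronger binding.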

The target in assay [4] is T4, 4H2568-bH.
T4 chain: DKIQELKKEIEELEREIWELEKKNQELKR
Nature of the assay: two-hybrid library CCNG1.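 Note: natural log of median RNA to DNA barcode read ratio; higher means stronger binding.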

The target of assay [5] is T5, 4H2619-bH.
T5 chain: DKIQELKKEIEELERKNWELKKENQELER
Nature of the assay: two-hybrid library CCNG1.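 Note: natural log of median RNA to DNA barcode read ratio; higher means stronger binding.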

In assay [6] the target is T6, 4H2745-bH.
T6 chain: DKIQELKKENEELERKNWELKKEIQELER
Nature of the assay: two-hybrid library CCNG1.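 Note: natural log of median RNA to DNA barcode read ratio; higher means stronger binding.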

Assay [7] deals with T7, 4H344-bH.
T7 chain: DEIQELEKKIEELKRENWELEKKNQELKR
Nature of the assay: two-hybrid library CCNG1.

Assay [8] deals with T8, 4H363-bH.
T8 chain: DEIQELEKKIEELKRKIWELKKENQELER
Nature of the assay: two-hybrid library CCNG1.

Assay [9] addresses T9, 4H3907-bH.
T9 chain: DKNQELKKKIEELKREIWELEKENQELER
Nature of the assay: two-hybrid library CCNG1.

Assay [10] addresses T10, 4H3961-bH.
T10 chain: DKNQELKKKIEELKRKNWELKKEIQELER
Nature of the assay: two-hybrid library CCNG1. Conditions: mean of both orientations.

Assay [11] deals with T11, 4H470-bH.
T11 chain: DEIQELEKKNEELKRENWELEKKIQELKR
Nature of the assay: two-hybrid library CCNG1.

Assay [12] addresses T12, Core_INNN-es_KEKK.
T12 chain: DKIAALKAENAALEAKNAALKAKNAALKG
Nature of the assay: two-hybrid library CCmax. Conditions: mean of both orientations.

In assay [13] the target is T13, P4S-Cys.
T13 chain: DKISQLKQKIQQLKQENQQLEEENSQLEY
Nature of the assay: two-hybrid library CCNG1. Conditions: mean of both orientations.

The target in assay [14] is T14, Core_IINI-es_KKKE.
T14 chain: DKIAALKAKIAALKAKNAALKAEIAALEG
Nature of the assay: two-hybrid library CCmax. Conditions: mean of both orientations.

Assay [15] has as its target T15, 4H3162-bA.
T15 chain: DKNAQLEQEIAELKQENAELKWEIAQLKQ
Nature of the assay: two-hybrid library CCNG1.

For assay [16], the target named is T16, 4H3175-bA.
T16 chain: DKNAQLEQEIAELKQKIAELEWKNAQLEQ
Nature of the assay: two-hybrid library CCNG1.

The target of assay [17] is T17, 4H3277-bA.
T17 chain: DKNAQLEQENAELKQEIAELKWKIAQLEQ
Nature of the assay: two-hybrid library CCNG1.

For assay [18], the target named is T18, 4H3298-bA.
T18 chain: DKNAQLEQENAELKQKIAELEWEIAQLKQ
Nature of the assay: two-hybrid library CCNG1.

The target of assay [19] is T19, 4H3462-bA.
T19 chain: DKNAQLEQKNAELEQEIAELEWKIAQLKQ
Nature of the assay: two-hybrid library CCNG1.

The target in assay [20] is T20, 4H348-bA.
T20 chain: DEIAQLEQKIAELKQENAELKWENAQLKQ
Nature of the assay: two-hybrid library CCNG1.

Assay [21] concerns the target T21, 4H3497-bA.
T21 chain: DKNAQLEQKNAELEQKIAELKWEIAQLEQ
Nature of the assay: two-hybrid library CCNG1.

Assay [22] addresses T22, 4H3613-bA.
T22 chain: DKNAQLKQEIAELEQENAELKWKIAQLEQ
Nature of the assay: two-hybrid library CCNG1.

Assay [23] has as its target T23, 4H3628-bA.
T23 chain: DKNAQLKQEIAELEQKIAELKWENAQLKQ
Nature of the assay: two-hybrid library CCNG1.

For assay [24], the target named is T24, 4H3631-bA.
T24 chain: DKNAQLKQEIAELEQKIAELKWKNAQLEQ
Nature of the assay: two-hybrid library CCNG1.

Assay [25] addresses T25, 4H3926-bA.
T25 chain: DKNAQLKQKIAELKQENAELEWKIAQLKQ
Nature of the assay: two-hybrid library CCNG1.

For assay [26], the target named is T26, 4H591-bA.
T26 chain: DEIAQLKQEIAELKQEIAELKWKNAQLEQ
Nature of the assay: two-hybrid library CCNG1.

For assay [27], the target named is T27, 4H626-bA.
T27 chain: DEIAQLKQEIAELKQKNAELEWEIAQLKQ
Nature of the assay: two-hybrid library CCNG1.

Assay [28] has as its target T28, 4H906-bA.
T28 chain: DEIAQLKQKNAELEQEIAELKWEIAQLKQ
Nature of the assay: two-hybrid library CCNG1.

The target of assay [29] is T29, P10A-bS.
T29 chain: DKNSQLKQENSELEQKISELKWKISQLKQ
Nature of the assay: two-hybrid library CCNG1.

Assay [30] addresses T30, P2bHq.
T30 chain: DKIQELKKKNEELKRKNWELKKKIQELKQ
Nature of the assay: two-hybrid library CCNG1.

Assay [31] addresses T31, 4H121-bN.
T31 chain: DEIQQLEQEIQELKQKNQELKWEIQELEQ
Nature of the assay: two-hybrid library CCNG1.

Assay [32] has as its target T32, 4H182-bN.
T32 chain: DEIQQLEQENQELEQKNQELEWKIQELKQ
Nature of the assay: two-hybrid library CCNG1.

Assay [33] addresses T33, 4H2134-bN.
T33 chain: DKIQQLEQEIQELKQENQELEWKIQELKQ
Nature of the assay: two-hybrid library CCNG1.

In assay [34] the target is T34, 4H2143-bN.
T34 chain: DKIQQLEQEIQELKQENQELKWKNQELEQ
Nature of the assay: two-hybrid library CCNG1.

The target of assay [35] is T35, 4H2223-bN.
T35 chain: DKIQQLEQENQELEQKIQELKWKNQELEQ
Nature of the assay: two-hybrid library CCNG1.

For assay [36], the target named is T36, 4H2438-bN.
T36 chain: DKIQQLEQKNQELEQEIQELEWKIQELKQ
Nature of the assay: two-hybrid library CCNG1.

In assay [37] the target is T37, 4H2473-bN.
T37 chain: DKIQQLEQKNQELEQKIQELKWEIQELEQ
Nature of the assay: two-hybrid library CCNG1.

The target of assay [38] is T38, 4H2503-bN.
T38 chain: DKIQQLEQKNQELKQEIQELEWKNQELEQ
Nature of the assay: two-hybrid library CCNG1.

Assay [39] deals with T39, 4H2588-bN.
T39 chain: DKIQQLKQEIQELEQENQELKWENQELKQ
Nature of the assay: two-hybrid library CCNG1.

The target of assay [40] is T40, 4H2692-bN.
T40 chain: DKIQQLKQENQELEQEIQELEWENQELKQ
Nature of the assay: two-hybrid library CCNG1.

The target of assay [41] is T41, 4H2717-bN.
T41 chain: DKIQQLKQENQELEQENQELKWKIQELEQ
Nature of the assay: two-hybrid library CCNG1.

In assay [42] the target is T42, 4H2839-bN.
T42 chain: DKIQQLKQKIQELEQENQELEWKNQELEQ
Nature of the assay: two-hybrid library CCNG1.

Assay [43] has as its target T43, 4H2915-bN.
T43 chain: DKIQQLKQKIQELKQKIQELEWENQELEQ
Nature of the assay: two-hybrid library CCNG1.

Assay [44] deals with T44, 4H3057-bN.
T44 chain: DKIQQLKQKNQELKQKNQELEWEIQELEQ
Nature of the assay: two-hybrid library CCNG1.

The target of assay [45] is T45, 4H319-bN.
T45 chain: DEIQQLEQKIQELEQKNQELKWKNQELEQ
Nature of the assay: two-hybrid library CCNG1.

Assay [46] concerns the target T46, 4H3277-bN.
T46 chain: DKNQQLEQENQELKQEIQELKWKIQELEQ
Nature of the assay: two-hybrid library CCNG1.

Assay [47] has as its target T47, 4H348-bN.
T47 chain: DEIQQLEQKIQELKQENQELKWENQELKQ
Nature of the assay: two-hybrid library CCNG1.

For assay [48], the target named is T48, 4H3974-bA.
T48 chain: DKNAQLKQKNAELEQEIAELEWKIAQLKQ
Nature of the assay: two-hybrid library CCNG1.

Assay [49] has as its target T49, 4H40-bN.
T49 chain: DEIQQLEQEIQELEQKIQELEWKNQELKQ
Nature of the assay: two-hybrid library CCNG1.

For assay [50], the target named is T50, 4H477-bN.
T50 chain: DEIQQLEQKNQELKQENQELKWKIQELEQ
Nature of the assay: two-hybrid library CCNG1.

Assay [51] has as its target T51, 4H492-bN.
T51 chain: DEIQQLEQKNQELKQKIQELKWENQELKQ
Nature of the assay: two-hybrid library CCNG1.

Assay [52] deals with T52, 4H741-bN.
T52 chain: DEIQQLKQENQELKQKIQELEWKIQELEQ
Nature of the assay: two-hybrid library CCNG1.

Assay [53] has as its target T53, Core_NNNI-es_KKKE.
T53 chain: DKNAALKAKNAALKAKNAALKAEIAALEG
Nature of the assay: two-hybrid library CCmax. Conditions: mean of both orientations.

The target in assay [54] is T54, P3SH.
T54 chain: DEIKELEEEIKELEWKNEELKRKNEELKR
Nature of the assay: two-hybrid library CCNG1.

For assay [55], the target named is T55, P4SH.
T55 chain: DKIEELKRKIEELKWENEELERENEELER
Nature of the assay: two-hybrid library CCNG1.

In assay [56] the target is T56, P5SH.
T56 chain: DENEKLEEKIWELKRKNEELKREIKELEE
Nature of the assay: two-hybrid library CCNG1.

For assay [57], the target named is T57, P6SH.
T57 chain: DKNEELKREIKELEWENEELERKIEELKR
Nature of the assay: two-hybrid library CCNG1.

Assay [58] deals with T58, P7SH.
T58 chain: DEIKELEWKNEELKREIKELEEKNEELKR
Nature of the assay: two-hybrid library CCNG1.

For assay [59], the target named is T59, P8SH.
T59 chain: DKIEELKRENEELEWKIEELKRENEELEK
Nature of the assay: two-hybrid library CCNG1.

In assay [60] the target is T60, Core_NINI-es_KEKK.
T60 chain: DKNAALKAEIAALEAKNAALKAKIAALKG
Nature of the assay: two-hybrid library CCmax. Conditions: mean of both orientations.

The target of assay [61] is T61, Core_NINN-es_KEKK.
T61 chain: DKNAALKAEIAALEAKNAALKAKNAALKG
Nature of the assay: two-hybrid library CCmax. Conditions: mean of both orientations.

In the case of DEIQALEEENAQLEQENAALEEEIAQLEY [P1p], in [1], the interaction score amounted to 1.64.

On to DENQELEKEIEELERENWELEKKIQELKR [4H1046-bH], for which the interaction score is 0.287 in assay [2]; -0.477 in assay [3]; 1.03 in assay [4]; 0.439 in assay [5]; 0.917 in assay [6]; 1.33 in assay [7]. Besides, the interaction score in [8] was -1.16; in assay [9], -0.121; in assay [10], -0.386; in assay [11], 0.405.

As for DEIAALEAKNAALKAENAALEAENAALEG [Core_INNN-es_EKEE], in [12], the interaction score came out at 1.91.

In turn, DEIQQLEEEISQLEQKNSQLKEKNQQLKY [Cys-P3S] had an interaction score in assay [13] of 1.92.

Regarding DEIAALEAEIAALEAENAALEAKIAALKG [Core_IINI-es_EEEK], in assay [14], the interaction score stood at 2.3.

Regarding DKNAQLEQEIAELKQENAELKWEIAQLKQ [4H3162-bA], the interaction score in assay [15] is 1.11; in assay [16], -0.314; in assay [17], -0.654; in [18], -0.43; in [19] it was -0.481; in assay [20] it was -2.08. The interaction score in [21] was -0.885; in [22] it was 0.452; in [23] it was -0.274; in [24], -1.48; in assay [25] it was 1.8; in assay [26], -1.2. Also, the interaction score in assay [27] is -0.331; in [28] it was -1.01; in [29], -0.255; in assay [30] it was -0.679.

For the molecule DEIQQLEQEIQELKQKNQELKWEIQELEQ [4H121-bN], the interaction score in assay [31] is -0.707; in assay [32], -0.748; in assay [33], 1.52; in assay [34], -0.718; in [35] it was -0.986; in [36], 1.48. Moreover, the interaction score in assay [37] is -0.436; in [38], -1.29; in assay [39], -0.5; in assay [40], -1.02; in assay [41], -0.302; in [42], -0.184. Moreover, the interaction score in assay [43] is -0.211; in assay [44], -1.3; in assay [45] it was -1.04; in assay [46], -1.33; in [47], -0.398; in assay [48] it was 1.19. Moreover, the interaction score is -0.563 in assay [49], -1.35 in assay [50], -1.42 in [51] and -1.39 in [52].

In the case of DENAALEAENAALEAENAALEAKIAALKG [Core_NNNI-es_EEEK], the interaction score in [53] came out at 2.16.

Regarding DEIKELEEEIKELEWKNEELKRKNEELKR [P3SH], the interaction score in assay [54] is 0.764; in [55], 1.95; in [56], 0.554; in assay [57] it was 0.737; in [58] it was -0.109; in assay [59], 0.525.

Molecule DENAALEAKIAALKAENAALEAEIAALEG [Core_NINI-es_EKEE] showed an interaction score in [60] of 2.15.

Consider DENAALEAKIAALKAENAALEAENAALEG [Core_NINN-es_EKEE], for which the interaction score in assay [61] is 1.5.
